# Results taken from publication PMC4264193, “Structures of the Inducer-Binding Domain of Pentachlorophenol-Degrading Gene Regulator PcpR from Sphingobium chlorophenolicum” (International Journal of Molecular Sciences, 2014).
# B1: PcpR inducer-binding domain (residues from 85 to the C-terminus of PcpR) (domain or fragment, Sphingobium chlorophenolicum L-1, UniProt P52679 85-307, looked up)
# chain: RSELRFDPGTSNRNFRIAASDFGQALMLPRLYATLEETAPQVRVTGVNLRHGPLVEELESGSIDIAFGGFPTLSAGIKTQTLFREEYVCVMRQSHPALTHGLDLEAFRQCRHIIVTAHEFNHVHEQVEARLLELLPPESIRFTTENFLVSAVIAEETDVILTIPSRLARWFANRGGLTIFPVPIELPSIEVKQYWHERYDKDPGNIWLRRVIAKIGFQNPPAE
# notes: PcpR, LysR-type transcription factor of Sphingobium chlorophenolicum L-1; Cloned into pET30-LIC and expressed as a C-terminal HIS6X fusion protein; also called PcpR IBD; source: E. coli BL21(DE3), purified (nickel-nitrilotriacetate column, Mono Q anion exchange)
# Biological target: the molecule itself
# Experiment: SEC-MALS; 200 ug of PcpR loaded on a BioSep-SEC-S 2000 column, eluted isocratically at 0.5 mL/min; UV, refractometer and Dawn EOS light scattering detectors; Zimm fit; calculated mass ~50 kD
protein,measurement,value
B1,stoichiometry N,2
